Results from patent publication US9969998B2, “Compositions of adenosine deaminase-2 (ADA2), variants thereof and methods of using same” (Halozyme, Inc., priority 2014, dated 2018).

Columns and labels:
ADA2 = target: T1, ADA2 (Homo sapiens, UniProt Q9NZK5); settings: cited from earlier work
T1 sequence (Q9NZK5 30-511): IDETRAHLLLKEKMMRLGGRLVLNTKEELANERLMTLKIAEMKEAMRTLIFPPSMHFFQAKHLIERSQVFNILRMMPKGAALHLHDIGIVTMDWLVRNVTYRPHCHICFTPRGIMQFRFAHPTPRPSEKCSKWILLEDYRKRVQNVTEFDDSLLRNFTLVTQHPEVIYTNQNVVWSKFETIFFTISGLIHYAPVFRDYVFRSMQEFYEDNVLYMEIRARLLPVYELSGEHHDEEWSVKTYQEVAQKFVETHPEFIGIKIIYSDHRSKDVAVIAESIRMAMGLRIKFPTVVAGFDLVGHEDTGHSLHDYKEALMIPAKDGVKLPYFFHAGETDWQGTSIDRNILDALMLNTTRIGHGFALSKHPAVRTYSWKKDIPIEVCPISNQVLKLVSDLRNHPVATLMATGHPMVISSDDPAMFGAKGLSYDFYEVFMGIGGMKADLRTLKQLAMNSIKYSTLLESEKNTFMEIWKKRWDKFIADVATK

ADA1 = target: T2, ADA1 (Homo sapiens, UniProt P00813); settings: cited from earlier work
T2 sequence (P00813 1-363): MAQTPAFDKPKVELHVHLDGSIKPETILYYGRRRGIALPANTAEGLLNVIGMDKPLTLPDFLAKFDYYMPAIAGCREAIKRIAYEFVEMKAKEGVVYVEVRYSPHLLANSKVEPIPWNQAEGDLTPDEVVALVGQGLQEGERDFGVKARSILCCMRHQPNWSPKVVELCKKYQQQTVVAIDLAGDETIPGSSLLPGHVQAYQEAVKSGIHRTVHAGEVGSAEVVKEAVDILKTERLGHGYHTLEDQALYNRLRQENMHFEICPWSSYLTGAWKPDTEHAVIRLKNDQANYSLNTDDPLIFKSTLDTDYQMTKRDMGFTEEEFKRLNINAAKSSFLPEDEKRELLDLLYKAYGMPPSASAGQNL

[1] = In vivo pharmacokinetics of PEGylated rHuADA2 combination variants (Example 14); settings: 3 mg/kg intravenous
Source text: (§1) Twenty-seven (27) male BALB/c mice were divided into three (3) dosing groups, and were further divided into three (3) groups each for sampling of blood at different time points. Thus, the mice were randomized into nine (9) groups total. Mice were weighed prior to the start of the study, and randomized into the 9 groups based upon their body weights. In each sampling group, three groups of (3) mice were used for dosing each test article to prevent oversampling of the blood from the animals. For measurement of baseline ADA2 levels, a blood sample was obtained from 12 randomly chosen mice and plasma was prepared using the anti-coagulant potassium (K3) ethylene diamine tetraacetic acid (K3-EDTA). All blood was collected by submandibular venipuncture.
(§2) PEGylated ADA2 variants were prepared using the PEGylation method as described in Example 8.A, with minor modifications. Briefly, all ADA2 variants at 10 mg/mL were PEGylated with linear PEG-20K (JenKem Technology, Plano, Tex.; Cat. No. M-SCM-20K) at 1:15 molar ratio and incubated first at 37° for 30 min, then at 4° C. for 16 hours.
(§3) Approximately 200 μL of whole blood was collected at designated sampling time points from appropriate groups of mice as indicated below in Table 38 and kept on ice until plasma preparation. The initial two (2) blood samples were collected by submandibular venipuncture. The final sample was collected from a terminal bleed. Plasma was prepared by centrifuging the blood (500×g for 5 min at 4° C.), transferring the plasma to a fresh tube and immediately freezing at −80° C. until the adenosine deaminase activity assay. Adenosine deaminase activity was determined as described in Example 4.
(§4) Non-compartmental analysis (NCA) was conducted using the Phoenix WinNonlin version 6.3 (Pharsight Corp, St. Louis, Mo. 63101). The half-life, or time taken for the activity of ADA2 proteins to be reduced by half, was calculated. Also, total exposure was measured by calculating the Area Under the Concentration-time Curve (AUC). The AUC and half-life values were obtained from the unweighted average from each test article group. The following options in the Phoenix WinNonlin program were used for data analysis: (i) linear trapezoidal/linear interpolation option for AUC; (ii) best-fit slope selection option for terminal slope; and (iii) uniform weighting of the data.

[2] = mouse, in vivo, iv, 3 mg/kg
Source text: as §1, §2, §3, §4

[3] = system: MH194+PSC4 pancreatic tumor; test: Tumor growth inhibition and survival, MH194+PSC4 syngeneic tumor model; format: in vivo, C57BL/6 mice; settings: for Tumor Growth Inhibition: vs vehicle; for Increase in MST: vs vehicle (MST 27 days)
Method: The murine MH194+PSC4 syngeneic tumor model was used to assess the antitumor efficacy of PEGylated a recombinant adenosine deaminase 2 (ADA2), PEGylated rHuADA2-R222Q/S265N (PEG-R222Q/S265N; PEG-R219Q/S262N by mature numbering).
The PSC4 cells are isolated and immortalized pancreatic stellate cells. To generate the PSC4 cells, pancreas from C57BL/6 mice were minced with razor blades and placed in 2 mL of a digestion buffer containing 0.05% collagenase P, 0.1% DNAse, and 0.02% Pronase in Gey's balanced salt solution (GBSS). Following two 15 min digestion incubations at 37° C. with thorough mixing after each incubation, the resulting cell suspension was filtered through a 100 μm nylon mesh, washed twice in GBSS with 0.3% bovine serum albumin (BSA), and resuspended in 10 mL GBSS/BSA. Eight mL of Histodenz (Sigma, Cat. No. D2158) was added to the cell suspension, and the entire volume was pipetted under 6 mL GBSS/BSA in order to generate a discontinuous density gradient. Following centrifugation for 20 min at 1,400 g with the brake set at zero, the desired cells were harvested from the interface between the two density volumes and washed once with PBS and once with DMEM medium supplemented with 2 mM L-glutamine, 10% fetal bovine serum, and 1% amphotericin-B (complete DMEM). Cells were immortalized using Lenti-SV40 (Capital Biosciences, Cat. No. CIP-0011) using manufacturer's protocol. The resulting cell line, designated PSC4, were maintained in tissue culture as an adherent monolayer in complete DMEM at 37° C. and 5% CO2. The MH194 mouse pancreatic carcinoma cells are derived from the KrasLSL.G12D/+p53R172H/+PdxCretg/+ genetically engineered mouse model. […]
Thirty-nine (39) male C57BL/6 mice were co-inoculated subcutaneously with 5×10^6 of a mixture of murine MH194 pancreatic cancer tumor cells and murine PSC4 pancreatic stellate cells in 0.1 mL injection volume per animal. Tumor volume was determined using digital calipers via measurement of length (L) and width (W) of the solid tumor masses. Tumor volume (TV) was calculated as: (L×W^2)/2. Tumors were allowed to grow and tumor bearing mice were staged for test article administration when the tumors were palpable and measured to be approximately 50-100 mm^3.
PEG-R222Q/S265N was prepared using similar methods as described in Example 8.A, with minor modifications to generate a preparation in which approximately 100% of the molecules were PEGylated as assessed by SDS-PAGE.
For treatment, MH194+PSC4 tumor bearing mice were randomized into five treatment groups (n=≤8); vehicle control (buffer only) or PEG-R222Q/S265N at four treatment doses. MH194+PSC4 tumor bearing mice were then injected intravenously (IV) every other day, at 0.003 mg/kg body weight, 0.03 mg/kg body weight, 0.3 mg/kg body weight and 3 mg/kg body weight of PEG-R222Q/S265N, or vehicle. […] Median survival time (MST) (in days) was calculated as the time at which 50% of the mice of the individual groups reached one of the following endpoints: (1) tumor volume reaches 2000 mm^3, (2) the animal loses >25% of its body weight, or (3) the animal appears moribund.

[4] = male BALB/c mice, WT from Example 9
[5] = 0.003 mg/kg IV every other day, day 11
[6] = 0.03 mg/kg IV every other day, day 11
[7] = 0.3 mg/kg IV every other day, day 11
[8] = 3 mg/kg IV every other day, day 11
[9] = day 11, 0.003 mg/kg IV every other day

For `CCCCCC[C@H]([C@H](C)O)n1cnc2c(N)ncnc21` [EHNA, (+)-erythro-9-(2-hydroxy-3-nonyl)adenine], the “inhibition of ADA2” value (ADA2) is listed as “does not inhibit ADA2” and the “inhibition of ADA1” value (ADA1) is listed as “selectively inhibits ADA1”.

B1: PEG-R222Q/S265N: rHuADA2-R222Q/S265N (SEQ ID NO:273) PEGylated with linear PEG-20K (conjugate)
chain: IDETRAHLLLKEKMMRLGGRLVLNTKEELANERLMTLKIAEMKEAMRTLIFPPSMHFFQAKHLIERSQVFNILRMMPKGAALHLHDIGIVTMDWLVRNVTYRPHCHICFTPRGIMQFRFAHPTPRPSEKCSKWILLEDYRKRVQNVTEFDDSLLRNFTLVTQHPEVIYTNQNVVWSKFETIFFTISGLIHYAPVFRDYVFRSMQEFYEDNVLYMEIRAQLLPVYELSGEHHDEEWSVKTYQEVAQKFVETHPEFIGIKIIYNDHRSKDVAVIAESIRMAMGLRIKFPTVVAGFDLVGHEDTGHSLHDYKEALMIPAKDGVKLPYFFHAGETDWQGTSIDRNILDALMLNTTRIGHGFALSKHPAVRTYSWKKDIPIEVCPISNQVLKLVSDLRNHPVATLMATGHPMVISSDDPAMFGAKGLSYDFYEVFMGIGGMKADLRTLKQLAMNSIKYSTLLESEKNTFMEIWKKRWDKFIADVATK
modifications: linear PEG-20K; human ADA2 R219Q/S262N, mature numbering
For B1, the “AUC (total exposure)” value ([1]; BALB/c mice, plasma ADA activity) was 16,330 (U * h)/mL, the “Percent increase in AUC compared to WT ADA2” value ([1]; BALB/c mice, vs non-PEGylated WT rHuADA2 of Example 9) was 49,661% and the “AUC higher than the non-PEGylated WT rHuADA2” value [1, 4] was 49661%. For the same molecule, the “half-life longer than the non-PEGylated WT rHuADA2” value [1, 4] was 4043%, the “Half-life slow (t1/2)” value [2] was 2,790 min and the “Percent increase in t1/2 compared to WT ADA2” value [2] was 4,043%. For the same molecule, the “MST (median survival time)” value ([3]; 0.003 mg/kg IV every other day) was 46 days, the “Average Tumor Volume” value [3, 5] was 323.9 mm^3 and the “Tumor Growth Inhibition” value [3, 5] was 72%. For the same molecule, the “Increase in MST” value ([3]; 0.003 mg/kg IV every other day) was 70%, the “median survival time (MST)” value ([3]; 0.003 mg/kg dose) was 46 days and the “mice that survived beyond 41 days” value ([3]; 0.003 mg/kg dose) was “Five out of eight”. For the same molecule, the “MST (median survival time)” value ([3]; 0.03 mg/kg IV every other day) was 26 days, the “Average Tumor Volume” value [3, 6] was 680.45 mm^3 and the “Tumor Growth Inhibition” value [3, 6] was 21%. For the same molecule, the “Increase in MST” value ([3]; 0.03 mg/kg IV every other day) was 0%, the “MST (median survival time)” value ([3]; 0.3 mg/kg IV every other day) was 32.5 days and the Survival time ([3]; 0.3 mg/kg IV every other day) was 13 to 41 days. For the same molecule, the “Average Tumor Volume” value [3, 7] was 700.59 mm^3, the “Tumor Growth Inhibition” value [3, 7] was 20% and the “Increase in MST” value ([3]; 0.3 mg/kg IV every other day) was 20%. The “MST (median survival time)” value ([3]; 3 mg/kg IV every other day) was 23.5 days, the “Average Tumor Volume” value [3, 8] was 678.58 mm^3 and the “Tumor Growth Inhibition” value [3, 8] was 22%. The “Increase in MST” value ([3]; 3 mg/kg IV every other day) was 0%, the Average Tumor Volume [3, 9] was “approximately 324 mm^3” and the “tumor growth inhibition (TGI)” value [3, 9] was “approximately 72%”.
